Assay results reported in PMC4259888.

Tests used:
[1] = molecular target: HIV-1 CA pentamers (A21C/E22C/W184A/M185A) (HIV-1); test: SEC; size-exclusion chromatographic profiles of purified individual CA hexamers, pentamers and monomers
[2] = molecular target: HIV-1 CA hexamers (A14C/E45C/W184A/M185A) (HIV-1); test: as above

With “HIV-1 CA pentamers (A21C/E22C/W184A/M185A) (natural protein)” the stoichiometry N [1] was 5.

Substance “HIV-1 CA hexamers (A14C/E45C/W184A/M185A) (natural protein)” has a stoichiometry N [2] of 6.
